Data reported in patent US20260217835.

Legend:
Experiment in all cases: SEC area ratio of heteromultimer after coexpression of full-length heavy chain, light chain and Fc fragment in Expi293F
[1] = biological target: T1, IgG1 Fc fragment with CH3 modification E345R/K360E/D399M/Y407A/K409V (SEQ ID NO: 76)
T1 chain: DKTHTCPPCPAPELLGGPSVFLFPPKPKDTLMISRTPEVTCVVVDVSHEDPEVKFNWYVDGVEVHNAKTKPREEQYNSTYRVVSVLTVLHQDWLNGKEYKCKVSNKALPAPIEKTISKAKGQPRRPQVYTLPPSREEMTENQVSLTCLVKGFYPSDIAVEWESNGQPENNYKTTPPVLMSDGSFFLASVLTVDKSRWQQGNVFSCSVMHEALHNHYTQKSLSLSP

[2] = biological target: T2, IgG1 Fc fragment with CH3 modification E356K/K392D/D399K/K409D (SEQ ID NO: 75)
T2 chain: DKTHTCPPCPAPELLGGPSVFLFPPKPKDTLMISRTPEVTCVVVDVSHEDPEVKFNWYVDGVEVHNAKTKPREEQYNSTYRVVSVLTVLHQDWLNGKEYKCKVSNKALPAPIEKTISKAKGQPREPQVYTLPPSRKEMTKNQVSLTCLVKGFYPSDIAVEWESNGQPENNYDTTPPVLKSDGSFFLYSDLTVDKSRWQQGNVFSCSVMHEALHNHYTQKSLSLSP

[3] = biological target: T3, IgG1 Fc fragment with CH3 modification E356K/K392D/D399K/K439E (SEQ ID NO: 71)
T3 chain: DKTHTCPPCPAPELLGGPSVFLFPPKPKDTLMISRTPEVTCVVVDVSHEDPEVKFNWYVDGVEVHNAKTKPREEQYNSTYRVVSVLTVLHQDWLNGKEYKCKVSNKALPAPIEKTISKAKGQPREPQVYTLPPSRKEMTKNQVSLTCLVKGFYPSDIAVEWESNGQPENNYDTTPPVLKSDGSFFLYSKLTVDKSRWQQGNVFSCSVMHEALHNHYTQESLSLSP

[4] = biological target: T4, IgG1 Fc fragment with CH3 modification K392L/T394W/F405A/Y407V (SEQ ID NO: 70)
T4 chain: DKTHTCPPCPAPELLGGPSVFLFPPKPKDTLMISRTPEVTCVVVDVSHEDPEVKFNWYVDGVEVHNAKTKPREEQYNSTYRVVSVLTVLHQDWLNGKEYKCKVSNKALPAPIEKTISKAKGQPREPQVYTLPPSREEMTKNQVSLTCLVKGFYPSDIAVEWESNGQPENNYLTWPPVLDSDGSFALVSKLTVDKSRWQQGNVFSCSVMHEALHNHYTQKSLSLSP

[5] = biological target: T5, IgG1 Fc fragment with CH3 modification Q347R/K360E/D399V/F405T/K409W (SEQ ID NO: 66)
T5 chain: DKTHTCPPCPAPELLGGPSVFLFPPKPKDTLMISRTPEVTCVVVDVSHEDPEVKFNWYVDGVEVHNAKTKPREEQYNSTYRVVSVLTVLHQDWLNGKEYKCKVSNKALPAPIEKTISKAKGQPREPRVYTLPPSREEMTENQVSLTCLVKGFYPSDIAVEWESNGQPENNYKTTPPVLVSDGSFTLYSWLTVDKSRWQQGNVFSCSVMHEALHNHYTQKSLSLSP

[6] = biological target: T6, IgG1 Fc fragment with CH3 modification T350V/L351Y/T366L/K392L/T394W/F405A/Y407V (SEQ ID NO: 77)
T6 chain: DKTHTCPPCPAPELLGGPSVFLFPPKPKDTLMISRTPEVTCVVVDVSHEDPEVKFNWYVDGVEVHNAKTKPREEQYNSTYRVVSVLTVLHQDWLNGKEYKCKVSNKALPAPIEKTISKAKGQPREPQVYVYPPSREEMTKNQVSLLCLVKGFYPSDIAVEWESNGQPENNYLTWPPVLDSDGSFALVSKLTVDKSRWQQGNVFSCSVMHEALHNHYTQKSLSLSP

[7] = biological target: T7, IgG1 Fc fragment with CH3 modification T366W/L368A/Y407V (SEQ ID NO: 65)
T7 chain: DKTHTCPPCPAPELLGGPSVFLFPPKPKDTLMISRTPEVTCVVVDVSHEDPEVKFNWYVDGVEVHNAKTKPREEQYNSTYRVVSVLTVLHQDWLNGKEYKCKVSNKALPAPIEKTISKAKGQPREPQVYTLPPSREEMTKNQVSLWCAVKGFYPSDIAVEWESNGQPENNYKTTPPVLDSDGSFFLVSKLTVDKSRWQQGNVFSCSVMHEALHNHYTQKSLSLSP

[8] = biological target: IgG1 Fc fragment with CH3 modification T394F/F405A (SEQ ID NO: 67)
[9] = biological target: IgG1 Fc fragment with CH3 modification T394W/F405A (SEQ ID NO: 64)
[10] = biological target: T8, IgG1 Fc fragment with CH3 modification Y349C/E357C/K392D/D399K (SEQ ID NO: 73)
T8 chain: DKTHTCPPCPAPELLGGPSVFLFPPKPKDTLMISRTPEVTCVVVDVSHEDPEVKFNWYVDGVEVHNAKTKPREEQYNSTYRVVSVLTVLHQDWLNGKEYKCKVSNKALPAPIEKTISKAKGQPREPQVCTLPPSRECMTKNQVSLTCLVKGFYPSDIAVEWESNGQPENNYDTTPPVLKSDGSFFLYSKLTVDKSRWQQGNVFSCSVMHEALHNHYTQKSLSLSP

B1: full-length IgG heavy chain with CH3 modification Y349C/E357C/K392D/D399K (SEQ ID NO: 51), coexpressed with light chain SEQ ID NO: 61 (protein)
chain 1: QVQLQESGPGLVRPSQTLSLTCTVSGYSITSDHAWSWVRQPPGRGLEWIGYISYSGITTYNPSLKSRVTMLRDTSKNQFSLRLSSVTAADTAVYYCARSLARTTAMDYWGQGSLVTVSSASTKGPSVFPLAPSSKSTSGGTAALGCLVKDYFPEPVTVSWNSGALTSGVHTFPAVLQSSGLYSLSSVVTVPSSSLGTQTYICNVNHKPSNTKVDKRVEPKSCDKTHTCPPCPAPELLGGPSVFLFPPKPKDTLMISRTPEVTCVVVDVSHEDPEVKFNWYVDGVEVHNAKTKPREEQYNSTYRVVSVLTVLHQDWLNGKEYKCKVSNKALPAPIEKTISKAKGQPREPQVCTLPPSRECMTKNQVSLTCLVKGFYPSDIAVEWESNGQPENNYDTTPPVLKSDGSFFLYSKLTVDKSRWQQGNVFSCSVMHEALHNHYTQKSLSLSP
chain 2: not shown
[1]
  heterodimer formation ratio (%): 0%
[2]
  heterodimer formation ratio (%): 0%
[3]
  heterodimer formation ratio (%): 0%
[4]
  heterodimer formation ratio (%): 0%
[5]
  heterodimer formation ratio (%): 0%
[6]
  heterodimer formation ratio (%): 0%
[7]
  heterodimer formation ratio (%): 0%
[8]
  heterodimer formation ratio (%): 0%
[9]
  heterodimer formation ratio (%): 0%
[10]
  heterodimer formation ratio (%): 56%

B2: full-length IgG heavy chain with CH3 modification E345R/Q347R/K360D/T366V/D399M/Y407A/K409V (SEQ ID NO: 55), coexpressed with light chain SEQ ID NO: 61 (protein)
chain 1: QVQLQESGPGLVRPSQTLSLTCTVSGYSITSDHAWSWVRQPPGRGLEWIGYISYSGITTYNPSLKSRVTMLRDTSKNQFSLRLSSVTAADTAVYYCARSLARTTAMDYWGQGSLVTVSSASTKGPSVFPLAPSSKSTSGGTAALGCLVKDYFPEPVTVSWNSGALTSGVHTFPAVLQSSGLYSLSSVVTVPSSSLGTQTYICNVNHKPSNTKVDKRVEPKSCDKTHTCPPCPAPELLGGPSVFLFPPKPKDTLMISRTPEVTCVVVDVSHEDPEVKFNWYVDGVEVHNAKTKPREEQYNSTYRVVSVLTVLHQDWLNGKEYKCKVSNKALPAPIEKTISKAKGQPRRPRVYTLPPSREEMTDNQVSLVCLVKGFYPSDIAVEWESNGQPENNYKTTPPVLMSDGSFFLASVLTVDKSRWQQGNVFSCSVMHEALHNHYTQKSLSLSP
chain 2: not shown
[1]
  heterodimer formation ratio (%): 49%
[2]
  heterodimer formation ratio (%): 0%
[3]
  heterodimer formation ratio (%): 0%
[4]
  heterodimer formation ratio (%): 0%
[5]
  heterodimer formation ratio (%): 6%
[6]
  heterodimer formation ratio (%): 0%
[7]
  heterodimer formation ratio (%): 0%
[8]
  heterodimer formation ratio (%): 0%
[9]
  heterodimer formation ratio (%): 0%
[10]
  heterodimer formation ratio (%): 0%

B3: full-length IgG heavy chain with CH3 modification T350V/L351Y/T366L/K392L/T394W/F405A/Y407V (SEQ ID NO: 60), coexpressed with light chain SEQ ID NO: 61 (protein)
chain 1: QVQLQESGPGLVRPSQTLSLTCTVSGYSITSDHAWSWVRQPPGRGLEWIGYISYSGITTYNPSLKSRVTMLRDTSKNQFSLRLSSVTAADTAVYYCARSLARTTAMDYWGQGSLVTVSSASTKGPSVFPLAPSSKSTSGGTAALGCLVKDYFPEPVTVSWNSGALTSGVHTFPAVLQSSGLYSLSSVVTVPSSSLGTQTYICNVNHKPSNTKVDKRVEPKSCDKTHTCPPCPAPELLGGPSVFLFPPKPKDTLMISRTPEVTCVVVDVSHEDPEVKFNWYVDGVEVHNAKTKPREEQYNSTYRVVSVLTVLHQDWLNGKEYKCKVSNKALPAPIEKTISKAKGQPREPQVYVYPPSREEMTKNQVSLLCLVKGFYPSDIAVEWESNGQPENNYLTWPPVLDSDGSFALVSKLTVDKSRWQQGNVFSCSVMHEALHNHYTQKSLSLSP
chain 2: not shown
[1]
  heterodimer formation ratio (%): 0%
[2]
  heterodimer formation ratio (%): 0%
[3]
  heterodimer formation ratio (%): 0%
[4]
  heterodimer formation ratio (%): 66%
[5]
  heterodimer formation ratio (%): 0%
[6]
  heterodimer formation ratio (%): 51%
[7]
  heterodimer formation ratio (%): 0%
[8]
  heterodimer formation ratio (%): 4%
[9]
  heterodimer formation ratio (%): 6%
[10]
  heterodimer formation ratio (%): 0%

B4: full-length IgG heavy chain with CH3 modification E356K/K392D/D399K/K409D (SEQ ID NO: 56), coexpressed with light chain SEQ ID NO: 61 (protein)
chain 1: QVQLQESGPGLVRPSQTLSLTCTVSGYSITSDHAWSWVRQPPGRGLEWIGYISYSGITTYNPSLKSRVTMLRDTSKNQFSLRLSSVTAADTAVYYCARSLARTTAMDYWGQGSLVTVSSASTKGPSVFPLAPSSKSTSGGTAALGCLVKDYFPEPVTVSWNSGALTSGVHTFPAVLQSSGLYSLSSVVTVPSSSLGTQTYICNVNHKPSNTKVDKRVEPKSCDKTHTCPPCPAPELLGGPSVFLFPPKPKDTLMISRTPEVTCVVVDVSHEDPEVKFNWYVDGVEVHNAKTKPREEQYNSTYRVVSVLTVLHQDWLNGKEYKCKVSNKALPAPIEKTISKAKGQPREPQVYTLPPSRKEMTKNQVSLTCLVKGFYPSDIAVEWESNGQPENNYDTTPPVLKSDGSFFLYSDLTVDKSRWQQGNVFSCSVMHEALHNHYTQKSLSLSP
chain 2: not shown
[1]
  heterodimer formation ratio (%): 0%
[2]
  heterodimer formation ratio (%): 56%
[3]
  heterodimer formation ratio (%): 60%
[4]
  heterodimer formation ratio (%): 0%
[5]
  heterodimer formation ratio (%): 0%
[6]
  heterodimer formation ratio (%): 0%
[7]
  heterodimer formation ratio (%): 0%
[8]
  heterodimer formation ratio (%): 0%
[9]
  heterodimer formation ratio (%): 0%
[10]
  heterodimer formation ratio (%): 0%

B5: full-length IgG heavy chain with CH3 modification E345R/K360E/D399M/Y407A/K409V (SEQ ID NO: 58), coexpressed with light chain SEQ ID NO: 61 (protein)
chain 1: QVQLQESGPGLVRPSQTLSLTCTVSGYSITSDHAWSWVRQPPGRGLEWIGYISYSGITTYNPSLKSRVTMLRDTSKNQFSLRLSSVTAADTAVYYCARSLARTTAMDYWGQGSLVTVSSASTKGPSVFPLAPSSKSTSGGTAALGCLVKDYFPEPVTVSWNSGALTSGVHTFPAVLQSSGLYSLSSVVTVPSSSLGTQTYICNVNHKPSNTKVDKRVEPKSCDKTHTCPPCPAPELLGGPSVFLFPPKPKDTLMISRTPEVTCVVVDVSHEDPEVKFNWYVDGVEVHNAKTKPREEQYNSTYRVVSVLTVLHQDWLNGKEYKCKVSNKALPAPIEKTISKAKGQPRRPQVYTLPPSREEMTENQVSLTCLVKGFYPSDIAVEWESNGQPENNYKTTPPVLMSDGSFFLASVLTVDKSRWQQGNVFSCSVMHEALHNHYTQKSLSLSP
chain 2: not shown
[1]
  heterodimer formation ratio (%): 51%
[2]
  heterodimer formation ratio (%): 0%
[3]
  heterodimer formation ratio (%): 0%
[4]
  heterodimer formation ratio (%): 0%
[5]
  heterodimer formation ratio (%): 4%
[6]
  heterodimer formation ratio (%): 0%
[7]
  heterodimer formation ratio (%): 0%
[8]
  heterodimer formation ratio (%): 0%
[9]
  heterodimer formation ratio (%): 0%
[10]
  heterodimer formation ratio (%): 0%
